The values below are quoted from earlier work in publication PMC8495453.

This data set addresses Galectin-3 (Homo sapiens) (UniProt P17931).

Some results are limits rather than exact numbers.

Chain of LAMP1 29-382 (P11279 29-382): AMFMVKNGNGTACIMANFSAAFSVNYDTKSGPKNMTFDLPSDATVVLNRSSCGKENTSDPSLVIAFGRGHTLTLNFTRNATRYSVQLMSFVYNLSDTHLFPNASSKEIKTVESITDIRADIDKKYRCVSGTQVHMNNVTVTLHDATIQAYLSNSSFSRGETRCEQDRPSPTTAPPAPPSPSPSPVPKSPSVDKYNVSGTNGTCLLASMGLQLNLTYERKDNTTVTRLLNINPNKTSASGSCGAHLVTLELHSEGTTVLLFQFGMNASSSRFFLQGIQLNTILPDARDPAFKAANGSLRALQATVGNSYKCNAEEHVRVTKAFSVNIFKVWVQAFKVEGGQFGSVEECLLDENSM
Chain of Galectin-3 (Homo sapiens) (P17931 2-250): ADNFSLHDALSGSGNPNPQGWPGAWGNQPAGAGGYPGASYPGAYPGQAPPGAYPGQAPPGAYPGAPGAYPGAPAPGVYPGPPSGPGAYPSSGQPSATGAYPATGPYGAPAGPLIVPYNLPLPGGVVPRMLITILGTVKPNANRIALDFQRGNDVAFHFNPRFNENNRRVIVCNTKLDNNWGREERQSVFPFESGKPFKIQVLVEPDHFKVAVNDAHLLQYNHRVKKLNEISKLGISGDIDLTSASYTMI

As to LAMP1 29-382 (from UniProt P11279), the Kd (usually a measure of binding affinity in units of concentration) was less than 25 nM.
